Experimental data reported in US20210145860A1.

Target: green fluorescent protein (GFP) [GFP: P42212]
Assay: cell-based or functional assay

Sequence of E3-ubiquitin ligase encoded by mRNA Construct G of Table 1 (ER signal-vhhGFP4-cereblon-FLAG-ER retention sequence) (Q96SW2 whole entry): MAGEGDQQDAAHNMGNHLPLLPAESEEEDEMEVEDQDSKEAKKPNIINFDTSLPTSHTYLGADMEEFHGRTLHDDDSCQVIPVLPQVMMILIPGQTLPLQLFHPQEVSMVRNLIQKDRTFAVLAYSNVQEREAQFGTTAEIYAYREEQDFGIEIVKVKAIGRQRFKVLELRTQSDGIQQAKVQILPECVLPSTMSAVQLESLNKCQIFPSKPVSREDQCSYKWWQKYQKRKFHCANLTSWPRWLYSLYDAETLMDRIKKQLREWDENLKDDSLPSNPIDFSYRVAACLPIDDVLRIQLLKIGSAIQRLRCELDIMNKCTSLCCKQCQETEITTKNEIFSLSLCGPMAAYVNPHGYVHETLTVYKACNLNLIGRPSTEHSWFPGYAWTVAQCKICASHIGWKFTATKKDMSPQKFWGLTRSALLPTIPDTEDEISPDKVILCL

decrease in GFP mean fluorescence intensity (MFI), flow cytometry of HeLa cells at 10:1 Construct G:GFP RNA: 46%
Substance: E3-ubiquitin ligase encoded by mRNA Construct G of Table 1 (ER signal-vhhGFP4-cereblon-FLAG-ER retention sequence) (from UniProt Q96SW2 1-442)
